MFI (Moyenne de l'intensité de fluorescence) data for two substances are collected here from patent EP1798242B1.

Experiment [1] addresses récepteur à l'insuline IR exprimé sur des cellules d'insectes Sf9 (baculovirus) (UniProt P06213). Nature of the experiment: FACScan on Sf9 insect cells expressing IR (baculovirus), anti-mouse FITC secondary; Tableau 1, column Cellules IR +.
The target of experiment [2] is IGF-IR exprimé sur des cellules d'insectes Sf9 (baculovirus) (UniProt P08069). Briefly: FACScan on Sf9 insect cells expressing IGF-IR (baculovirus), anti-mouse FITC secondary; Tableau 1, column Cellules IGF1R +.
For experiment [3], the target named is récepteur à l'insuline IR exprimé sur des cellules d'insectes Sf9 (baculovirus) (UniProt P06213). Nature of the experiment: FACScan on Sf9 insect cells expressing IR (baculovirus), secondary antibody alone; Tableau 1, column Cellules IR +.
The target in experiment [4] is IGF-IR exprimé sur des cellules d'insectes Sf9 (baculovirus) (UniProt P08069). Briefly: FACScan on Sf9 insect cells expressing IGF-IR (baculovirus), secondary antibody alone; Tableau 1, column Cellules IGF1R +.

As for “AcM commercial αIR3 (anti-IGF-IR) (antibody)”, the values for the MFI (Moyenne de l'intensité de fluorescence) in experiment [1] and in experiment [2] were 32 and 35, respectively.
On to Anti-souris FITC (antibody), for which the MFI (Moyenne de l'intensité de fluorescence) in experiment [3] amounted to 13; in experiment [4], 9.
